This passage reports Kd results from paper PMC8260656.

Broadly, the Kd is the equilibrium constant for the complex coming apart.

The target of this experiment is EZH2 recombinant protein His-tagged (Epigentek, E24031-1) (human) (UniProt Q15910). Briefly: MST; labeled His-tagged EZH2 at 5 nM fixed; ERG from 0.4uM to 2.44E-05uM; incubated at room temperature for 5 min; Monolith NT.115, Premium capillaries, 30% LED excitation, high MST power.

B1: ERG recombinant protein (Origene, TP308093) (natural protein)
chain: MASTIKEALSVVSEDQSLFECAYGTPHLAKTEMTASSSSDYGQTSKMSPRVPQQDWLSQPPARVTIKMECNPSQVNGSRNSPDECSVAKGGKMVGSPDTVGMNYGSYMEEKHMPPPNMTTNERRVIVPADPTLWSTDHVRQWLEWAVKEYGLPDVNILLFQNIDGKELCKMTKDDFQRLTPSYNADILLSHLHYLRETPLPHLTSDDVDKALQNSPRLMHARNTGGAAFIFPNTSVYPEATQRITTRPDLPYEPPRRSAWTGHGHPTPQSKAAQPSPSTVPKTEDQRPQLDPYQILGPTSSRLANPGSGQIQLWQFLLELLSDSSNSSCITWEGTNGEFKMTDPDEVARRWGERKSKPNMNYDKLSRALRYYYDKNIMTKVHGKRYAYKFDFHGIAQALQPHPPESSLYKYPSDLPYMGSYHAHPQKMNFVAPHPPALPVTSSSFFAAPNPYWNSPTGGIYPNTRLPTSHMPSHLGTYY
In the case of B1, the Kd was determined as 290 nM.
